# According to patent US20210107971A1 (UCB, published 2021):
# B1: 6470gL3gH46 (antibody, V domains shown)
# VH: EVQLLESGGGLVQPGGSLRLSCAASGIDLSSHDMYWVRQAPGKGLEYIGAIYASGSTYYASWAKGRFTISRDNSKNTVYLQMNSLRAEDTAVYYCARIHYGNSGGLWGQGTLVTVSS
# VL: DIQMTQSPSSLSASVGDRVTITCQASQSVYKNNYLAWFQQKPGKAPKQLIYGASTLASGVPSRFSGSGSGTQFTLTISSLQPEDFATYYCAGYKGGRNDGFAFGGGTKVEIKR
# B2: 6470gL3gH50 (antibody, V domains shown)
# VH: EVQLLESGGGLVQPGGSLRLSCAASGIDLSSHDMYWVRQAPGKGLEYIGAIYASGSTYYASWAKGRFTISRDSSKNTLYLQMNSLRAEDTAVYYCARIHYGNSGGLWGQGTLVTVSS
# VL: DIQMTQSPSSLSASVGDRVTITCQASQSVYKNNYLAWFQQKPGKAPKQLIYGASTLASGVPSRFSGSGSGTQFTLTISSLQPEDFATYYCAGYKGGRNDGFAFGGGTKVEIKR
# B3: 6470 rabbit Fab with heavy chain mutation H31K (Fab, V domains shown)
# VH: QSVEESGGRLVTPGTPLTLTCTVSGIDLSSKDMYWVRQAPGKGLEYIGAIYASGSTYYASWAKGRFTISKTSTTVDLKMTSLTTEDTATYFCARIHYGNSGGLWGQGTLVTVSS
# VL: AIVMTQTPSSKSVAVGDTVTINCQASQSVYKNNYLAWFQQKPGQPPKQLIYGASTLASGVPSRFKGSGSGTQFTLTISDVVCDDAATYYCAGYKGGRNDGFAFGGGTEVVVKR
# B4: 6470 rabbit Fab with heavy chain mutation H31Q (Fab, V domains shown)
# VH: QSVEESGGRLVTPGTPLTLTCTVSGIDLSSQDMYWVRQAPGKGLEYIGAIYASGSTYYASWAKGRFTISKTSTTVDLKMTSLTTEDTATYFCARIHYGNSGGLWGQGTLVTVSS
# VL: AIVMTQTPSSKSVAVGDTVTINCQASQSVYKNNYLAWFQQKPGQPPKQLIYGASTLASGVPSRFKGSGSGTQFTLTISDVVCDDAATYYCAGYKGGRNDGFAFGGGTEVVVKR
# B5: 6470 rabbit Fab with heavy chain mutation H31R (Fab, V domains shown)
# VH: QSVEESGGRLVTPGTPLTLTCTVSGIDLSSRDMYWVRQAPGKGLEYIGAIYASGSTYYASWAKGRFTISKTSTTVDLKMTSLTTEDTATYFCARIHYGNSGGLWGQGTLVTVSS
# VL: AIVMTQTPSSKSVAVGDTVTINCQASQSVYKNNYLAWFQQKPGQPPKQLIYGASTLASGVPSRFKGSGSGTQFTLTISDVVCDDAATYYCAGYKGGRNDGFAFGGGTEVVVKR
# B6: 6470 rabbit Fab with heavy chain mutation N99H (Fab, V domains shown)
# VH: QSVEESGGRLVTPGTPLTLTCTVSGIDLSSHDMYWVRQAPGKGLEYIGAIYASGSTYYASWAKGRFTISKTSTTVDLKMTSLTTEDTATYFCARIHYGHSGGLWGQGTLVTVSS
# VL: AIVMTQTPSSKSVAVGDTVTINCQASQSVYKNNYLAWFQQKPGQPPKQLIYGASTLASGVPSRFKGSGSGTQFTLTISDVVCDDAATYYCAGYKGGRNDGFAFGGGTEVVVKR
# B7: 6470 rabbit Fab with heavy chain mutation N99K (Fab, V domains shown)
# VH: QSVEESGGRLVTPGTPLTLTCTVSGIDLSSHDMYWVRQAPGKGLEYIGAIYASGSTYYASWAKGRFTISKTSTTVDLKMTSLTTEDTATYFCARIHYGKSGGLWGQGTLVTVSS
# VL: AIVMTQTPSSKSVAVGDTVTINCQASQSVYKNNYLAWFQQKPGQPPKQLIYGASTLASGVPSRFKGSGSGTQFTLTISDVVCDDAATYYCAGYKGGRNDGFAFGGGTEVVVKR
# B8: 6470 rabbit Fab with heavy chain mutation N99Q (Fab, V domains shown)
# VH: QSVEESGGRLVTPGTPLTLTCTVSGIDLSSHDMYWVRQAPGKGLEYIGAIYASGSTYYASWAKGRFTISKTSTTVDLKMTSLTTEDTATYFCARIHYGQSGGLWGQGTLVTVSS
# VL: AIVMTQTPSSKSVAVGDTVTINCQASQSVYKNNYLAWFQQKPGQPPKQLIYGASTLASGVPSRFKGSGSGTQFTLTISDVVCDDAATYYCAGYKGGRNDGFAFGGGTEVVVKR
# B9: 6470 rabbit Fab with heavy chain mutation N99R (Fab, V domains shown)
# VH: QSVEESGGRLVTPGTPLTLTCTVSGIDLSSHDMYWVRQAPGKGLEYIGAIYASGSTYYASWAKGRFTISKTSTTVDLKMTSLTTEDTATYFCARIHYGRSGGLWGQGTLVTVSS
# VL: AIVMTQTPSSKSVAVGDTVTINCQASQSVYKNNYLAWFQQKPGQPPKQLIYGASTLASGVPSRFKGSGSGTQFTLTISDVVCDDAATYYCAGYKGGRNDGFAFGGGTEVVVKR
# B10: 6470 rabbit Fab with heavy chain mutation N99W (Fab, V domains shown)
# VH: QSVEESGGRLVTPGTPLTLTCTVSGIDLSSHDMYWVRQAPGKGLEYIGAIYASGSTYYASWAKGRFTISKTSTTVDLKMTSLTTEDTATYFCARIHYGWSGGLWGQGTLVTVSS
# VL: AIVMTQTPSSKSVAVGDTVTINCQASQSVYKNNYLAWFQQKPGQPPKQLIYGASTLASGVPSRFKGSGSGTQFTLTISDVVCDDAATYYCAGYKGGRNDGFAFGGGTEVVVKR
# B11: 6470 rabbit Fab with heavy chain mutation S53N (Fab, V domains shown)
# VH: QSVEESGGRLVTPGTPLTLTCTVSGIDLSSHDMYWVRQAPGKGLEYIGAIYANGSTYYASWAKGRFTISKTSTTVDLKMTSLTTEDTATYFCARIHYGNSGGLWGQGTLVTVSS
# VL: AIVMTQTPSSKSVAVGDTVTINCQASQSVYKNNYLAWFQQKPGQPPKQLIYGASTLASGVPSRFKGSGSGTQFTLTISDVVCDDAATYYCAGYKGGRNDGFAFGGGTEVVVKR
# B12: 6470 rabbit Fab with heavy chain mutation S55N (Fab, V domains shown)
# VH: QSVEESGGRLVTPGTPLTLTCTVSGIDLSSHDMYWVRQAPGKGLEYIGAIYASGNTYYASWAKGRFTISKTSTTVDLKMTSLTTEDTATYFCARIHYGNSGGLWGQGTLVTVSS
# VL: AIVMTQTPSSKSVAVGDTVTINCQASQSVYKNNYLAWFQQKPGQPPKQLIYGASTLASGVPSRFKGSGSGTQFTLTISDVVCDDAATYYCAGYKGGRNDGFAFGGGTEVVVKR
# B13: 6470 rabbit Fab with light chain mutation N33K (Fab, V domains shown)
# VH: QSVEESGGRLVTPGTPLTLTCTVSGIDLSSHDMYWVRQAPGKGLEYIGAIYASGSTYYASWAKGRFTISKTSTTVDLKMTSLTTEDTATYFCARIHYGNSGGLWGQGTLVTVSS
# VL: AIVMTQTPSSKSVAVGDTVTINCQASQSVYKNKYLAWFQQKPGQPPKQLIYGASTLASGVPSRFKGSGSGTQFTLTISDVVCDDAATYYCAGYKGGRNDGFAFGGGTEVVVKR
# B14: 6470 rabbit Fab with light chain mutation N33R (Fab, V domains shown)
# VH: QSVEESGGRLVTPGTPLTLTCTVSGIDLSSHDMYWVRQAPGKGLEYIGAIYASGSTYYASWAKGRFTISKTSTTVDLKMTSLTTEDTATYFCARIHYGNSGGLWGQGTLVTVSS
# VL: AIVMTQTPSSKSVAVGDTVTINCQASQSVYKNRYLAWFQQKPGQPPKQLIYGASTLASGVPSRFKGSGSGTQFTLTISDVVCDDAATYYCAGYKGGRNDGFAFGGGTEVVVKR
# B15: 6470 rabbit Fab with light chain mutation Y30W (Fab, V domains shown)
# VH: QSVEESGGRLVTPGTPLTLTCTVSGIDLSSHDMYWVRQAPGKGLEYIGAIYASGSTYYASWAKGRFTISKTSTTVDLKMTSLTTEDTATYFCARIHYGNSGGLWGQGTLVTVSS
# VL: AIVMTQTPSSKSVAVGDTVTINCQASQSVWKNNYLAWFQQKPGQPPKQLIYGASTLASGVPSRFKGSGSGTQFTLTISDVVCDDAATYYCAGYKGGRNDGFAFGGGTEVVVKR
# B16: 6470gL6gH23 (antibody, V domains shown)
# VH: EVQLLESGGGLVQPGGSLRLSCAVSGIDLSSHDMYWVRQAPGKGLEYIGAIYASGSTYYASWAKGRFTISRDNSKNTVYLQMNSLRAEDTAVYYCARIHYGNSGGLWGQGTLVTVSS
# VL: DIQMTQSPSSLSASVGDRVTITCQASQSVYKNNYLAWFQQKPGKAPKSLIYGASTLASGVPSRFSGSGSGTQFTLTISSLQPEDFATYYCAGYKGGRNDGFAFGGGTKVEIKR
# B17: 6470gL3gH26 (antibody, V domains shown)
# VH: EVQLLESGGGLVQPGGSLRLSCAVSGIDLSSHDMYWVRQAPGKGLEYVGAIYASGSTYYASWAKGRFTISKDSSKNTVYLQMNSLRAEDTAVYYCARIHYGNSGGLWGQGTLVTVSS
# VL: DIQMTQSPSSLSASVGDRVTITCQASQSVYKNNYLAWFQQKPGKAPKQLIYGASTLASGVPSRFSGSGSGTQFTLTISSLQPEDFATYYCAGYKGGRNDGFAFGGGTKVEIKR
# B18: 6470gL3gH27 (antibody, V domains shown)
# VH: EVQLLESGGGLVQPGGSLRLSCAVSGIDLSSHDMYWVRQAPGKGLEYISAIYASGSTYYASWAKGRFTISKDSSKNTVYLQMNSLRAEDTAVYYCARIHYGNSGGLWGQGTLVTVSS
# VL: DIQMTQSPSSLSASVGDRVTITCQASQSVYKNNYLAWFQQKPGKAPKQLIYGASTLASGVPSRFSGSGSGTQFTLTISSLQPEDFATYYCAGYKGGRNDGFAFGGGTKVEIKR
# Key:
# [1] = target: T1, purified recombinant human alpha synuclein fibrils (human, UniProt P37840 1-140); experiment: affinity for human alpha synuclein fibrils, IgG4P; method not given
# [2] = target: recombinant full-length human alpha synuclein monomer (human, UniProt P37840 1-140); experiment: SPR, Biacore T200, as in Example 3; Fab injected;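 also: ligands amine-coupled on CM5 chip flow cells, HBS-EP+ running buffer, kinetic data fitted with 1:1 model allowing local bulk contribution and global Rmax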
# Protocol: (§1) Interaction kinetics were determined by using surface plasmon resonance technology on a Biacore T200 instrument. Three different ligands including recombinant full-length human alpha synuclein monomer, purified recombinant human alpha synuclein fibrils, and purified recombinant mouse alpha synuclein fibrils, prepared as described herein, were each immobilized on three different flow cells of a CM5 chip surface using amine-coupling chemistry. The three ligands were prepared in 10 mM NaAc, pH 3.5, and immobilized onto separate flow cell surfaces to reach an immobilization level of about 30 response units (RU) for alpha synuclein monomer, about 40 RU for human alpha synuclein fibrils, and about 300 RU for mouse alpha synuclein fibrils respectively, at a flow rate of 10 μI/min. The buffer HBS-EP+(GE healthcare Bio-Sciences AB) was used as running buffer for both ligand immobilization and kinetics assay. […] The surface was regenerated by one injection of 50 mM HCl for 90 s at 10 μI/min, and another injection of 50 mM HCl for 60 s at 10 μI/min. The data were analyzed using the Biacore T200 evaluation software (version 3.0) using the bivalent analyte model with assumed no bulk contribution (RI=0) and global Rmax for IgG format, and 1:1 model with flexible bulk contribution (local RI) and global Rmax.
# [3] = target: T1, purified recombinant human alpha …; experiment: SPR, Biacore T200, as in Example 3; Fab injected;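 also: ligands amine-coupled on CM5 chip flow cells, HBS-EP+ running buffer, kinetic data fitted with 1:1 model allowing local bulk contribution and global Rmax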
# Protocol: as §1
Binder,Kd [1] [nM],Kd [2] [nM],koff [2] [s⁻¹],kon [2] [M⁻¹ s⁻¹],Kd [3] [nM],koff [3] [s⁻¹],kon [3] [M⁻¹ s⁻¹]
B1,0.316,–,–,–,–,–,–
B2,0.58,–,–,–,–,–,–
B3,–,152,0.938,6.17e+06,46.7,0.423,9.06e+06
B4,–,23.1,0.185,8e+06,12.4,0.0972,7.83e+06
B5,–,1660,0.44,265000,62.3,0.373,5.98e+06
B6,–,0.7,0.00745,1.33e+07,0.4,0.00401,6.2e+06
B7,–,23.9,0.189,7.89e+06,20.7,0.207,1.58e+07
B8,–,1310,0.493,375000,42.4,0.425,1.03e+07
B9,–,16.9,0.17,1.22e+07,15.3,0.154,1.89e+07
B10,–,61.3,0.566,9.22e+06,25.3,0.134,5.27e+06
B11,–,1130,0.0517,45600,49.6,0.286,5.75e+06
B12,–,1.9,0.0191,1.39e+07,1.4,0.013,9.2e+06
B13,–,15.2,0.0433,2.84e+06,7.1,0.0498,6.93e+06
B14,–,–,0.0799,1.92e+07,2.9,0.0289,9.98e+06
B15,–,50.4,0.151,2.99e+06,18.8,0.0895,4.75e+06
B16,0.547,–,–,–,–,–,–
B17,0.3,–,–,–,–,–,–
B18,22.3,–,–,–,–,–,–
